T1: human NRP1 protein (human, UniProt O14786-2 22-644, limits assumed)
T1 construct: Protein used for ELISA coating (200 ng per well) and SPR; also called Neuropilin 1
T1 sequence (looked up): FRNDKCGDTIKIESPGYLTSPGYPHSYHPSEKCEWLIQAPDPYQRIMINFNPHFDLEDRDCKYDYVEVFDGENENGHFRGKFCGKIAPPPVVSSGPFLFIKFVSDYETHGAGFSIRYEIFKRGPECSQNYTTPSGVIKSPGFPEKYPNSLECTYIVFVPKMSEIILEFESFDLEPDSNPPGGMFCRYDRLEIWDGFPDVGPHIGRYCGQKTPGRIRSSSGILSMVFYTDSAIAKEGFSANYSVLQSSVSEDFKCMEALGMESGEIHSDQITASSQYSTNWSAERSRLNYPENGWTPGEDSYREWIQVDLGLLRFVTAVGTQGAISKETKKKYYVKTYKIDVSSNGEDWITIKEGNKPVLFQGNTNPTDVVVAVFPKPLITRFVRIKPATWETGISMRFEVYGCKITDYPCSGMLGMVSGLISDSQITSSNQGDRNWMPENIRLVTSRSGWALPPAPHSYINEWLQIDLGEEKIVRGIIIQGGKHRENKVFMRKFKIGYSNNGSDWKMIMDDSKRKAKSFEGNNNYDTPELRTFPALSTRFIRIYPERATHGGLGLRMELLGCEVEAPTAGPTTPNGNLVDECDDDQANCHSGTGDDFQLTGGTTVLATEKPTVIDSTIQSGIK

B1: IRCR-101 (3H10) anti-NRP1 IgG (antibody, V domains shown)
VH: EVQLLESGGGLVQPGGSLRLSCAASGFTFSSYYMSWVRQAPGKGLEWVSAISPGSSNKYYADSVKGRFTISRDNSKNTLYLQMNSLRAEDTAVYYCARRKYMFDYWGQGTLVTVSS
VL: QSVLTQPPSASGTPGQRVTISCTGSSSNIGNNDVYWYQQLPGTAPKLLIYSDSNRPSGVPDRFSGSKSGTSASLAISGLRSEDEADYYCASWDSSLSGYVFGGGTKLTVL
B2: 1A03 anti-NRP1 IgG (antibody, V domains shown)
VH: EVQLLESGGGLVQPGGSLRLSCAASGFTFSSYYMSWVRQAPGKGLEWVSAISPGSSNKYYADSVQGRFTISRDNSKNTLYLQMNSLRAEDTAVYYCARRKKSFDYWGQGTLVTVSS
VL: QSVLTQPPSASGTPGQRVTISCSGPSSNIGNNDVSWYQQLPGTAPKLLIYSDNNRPSGVPDRFSGSKSGTSASLAISGLRSEDEADYYCGAWVASLSAYVFGGGTKLTVL
B3: 4F12 anti-NRP1 IgG (antibody, V domains shown)
VH: EVQLLESGGGLVQPGGSLRLSCAASGFTFSGYAMSWVRQAPGKGLEWVSGISPGSGSTYYADSVKGRFTISRDNSKNTLYLQMNSLRAEDTAVYYCAKRKTRFDYWGQGTLVTVSS
VL: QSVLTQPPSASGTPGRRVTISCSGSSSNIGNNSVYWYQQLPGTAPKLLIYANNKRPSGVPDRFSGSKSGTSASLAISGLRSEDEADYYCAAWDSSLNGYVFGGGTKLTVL
notes: scFv converted to IgG and made in the Expi 293F system, 150 kD; also called 4F12 antibody

Key:
[1] = target: NRP1 expressed on the surface of cancer cells (NRP1-overexpressing patient-derived cells); U87MG glioblastoma … (human, UniProt O14786 22-923); experiment: cell-based or functional assay
human NRP1 protein = target: T1, human NRP1 protein; experiment: IgG on human NRP1; text says ELISA and SPR, the legend of FIG. 14 says ELISA

| Binder | inhibition of tumor cells migration in patient-derived cells [1] [%] | Kd (human NRP1 protein) [nM] |
| --- | --- | --- |
| B1 | > 50 |  |
| B2 | > 50 |  |
| B3 | 40 | 0.6 |
